Measurements as given in the DeepSol protein solubility set.

Experiment: soluble on expression in E. coli; label from the status in PepcDB or PDB records

Sequence	soluble on expression in E. coli
MKTPNAQEAEGQQTRAAAGRATGSANMTKKKVSQKKQRGRPSSQPRRNIVGCRISHGWKEGDEPITQWKGTVLDQVPINPSLYLVKYDGIDCVYGLELHRDERVLSLKILSDRVASSHISDANLANTIIGKAVEHMFEGEHGSKDEWRGMVLAQAPIMKAWFYITYEKDPVLYMYQLLDDYKEGDLRIMPESSESPPTEREPGGVVDGLIGKHVEYTKEDGSKRIGMVIHQVEAKPSVYFIKFDDDFHIYVYDLVKKS	soluble
MKTRINYAKASPEAFKAVMALENYVQSSGLEHRFIHLIKLRASIINGCAFCVDMHVKESRHDGLSEQWINLMSVWRESPVYTEQERALLGWVDAVTKIAETGAPDDAFETLRAHFSDEEIVKITVAIGAINTWNRIAVGFRSQHPVEAAAKAA	soluble
MKTSYDDTRQHLLDTGYRIMAVKGFSGVGLNEILQSAGVPKGSFYHYFKSKEQFGQALLEDYFRVYLADMDQRFSAPGLNARERLMSYWQKWLDNACPPCDEQRCLVVKLSAEVADLSESMRITLRDGSDGIIERLVGCLGQGRDDGSLAPCDARHMASALYQLWLGASLLSKLHRSPGPLETAMQTTRSLLEI	soluble
MKTTTQELKQYITRLFQLSNNETWECEALEEAAENILPERFINNSLLAHLTLNTYTYYNDELHELSIYPFLMYANDQLISIGYLDHFDMDFLYLTDTKNTLIDERHLLKQGGNHHELEHHHHHH	soluble
MKTWLPTSTAGSLPKPSWLAQPETLWSPWKLSSEELLAGKRDALRLSLDDQLRAGIDIVSDGEQTRQHFVTTFIEHLSGVDFAKREIVKIRNRYEASVPTVVGAVERQKPVFVEDARYLRQLTSQPIKWALPGPMTMIDTLYDNHYKSREKLAWEFAKILNQEAKELEAAGVDIIQFDEPAFNVFFDEVNDWGIAALERATEGLKCETAVHICYGYGIKANTDWKKTLGSEWRQYEEAFPQLQKSSLDIISLECHNSRVPMDLLELIRGKKVMVGAIDVASHAIETPEEVAGTLRKALAFVDADKLYPSTNCGMAPLPRHVATGKLHALSAGAEIIRRELAAK	not soluble
MKVAIVHNSEEKSKQVTKQLTTLLEQNQIQIDNRQPELVISVGGDGTLLSAFHRFNHLLNEVSFLGVHTGHLGFYTDWRDYELKELVESLCIHREKSTSYPLLDVRIRFRDGKPDKHFLALNESTIKRGNRTMVGDVFIKDELFERFRGDGLSISTPTGSTAYNKSIGGAVLHPSINAFQLTEIASLNNRVFRTLGSPIVIAHTEWLEIKLQESDDYFVTVDQLDIYQENIASVCYRIADERIHFASYRHMHFWHRVKDAFIGED	not soluble
MKVALGGTFEPLHEGHKKLIDVAIKLGGRDITIGVTSDRMARARIRSVLPFAIRAENVKRYVMRKYGFEPEIVKITNPYGKTLDVDFEYLVVSPETYEMALKINQKREELGKRKITIVKVDWMMAEDGKPISSTRIKRGEIDRYGGII	soluble
MKVGYLGPAATFTHLAVSSCFQNGAEHVAYRTIPECIDAAVAGEVDFAFVPLENALEGSVNLTIDYLIHEQPLPIVGEMTLPIHQHLLVHPSRENAWKELDKIYSHSHAIAQCHKFLHRHFPSVPYEYANSTGAAAKFVSDHPELNIGVIANDMAASTYELKIVKRDIQDYRDNHTRFVILSPDENISFEVNSKLSSRPKTTLMVMLPQDDQSGALHRVLSAFSWRNLNLSKIESRPTKTGLGHYFFIIDIEKAFDDVLIPGAMQELEALGCKVRLLGAYQSYQLMAGDPLEHHHHHH	not soluble
MKVIIIGGETTAYYLARSMLSRKYGVVIINKDRELCEEFAKKLKATIIHGDGSHKEILRDAEVSKNDVVVILTPRDEVNLFIAQLVMKDFGVKRVVSLVNDPGNMEIFKKMGITTVLNLTTLITNTVEALIFPDEFSSIIPLEQGIEFLSVNVEEDSPVVGKKLKDLPLPRDSIIAAIVRGGVLVVPRGDTEILSGDKLYVIVSAEAKETVEETLLGR	soluble
MKVIVVGCTHAGTFAVKQTIADHPDADVTAYEMNDNISFLSCGIALYLGKEIKNNDPRGLFYSSPEELSNLGANVQMRHQVTNVDPETKTIKVKDLITNEEKTEAYDKLIMTTGSKPTVPPIPGIDSSRVYLCKNYNDAKKLFEEAPKAKTITIIGSGYIGAELAEAYSNQNYNVNLIDGHERVLYKYFDKEFTDILAKDYEAHGVNLVLGSKVAAFEEVDDEIITKTLDGKEIKSDIAILCIGFRPNTELLKGKVAMLDNGAIITDEYMHSSNRDIFAAGDSAAVHYNPTNSNAYIPLATNAVRQGRLVGLNLTEDKVKDMGTQSSSGLKLYGRTYVSTGINTALAKANNLKVSEVIIADNYRPEFMLSTDEVLMSLVYDPKTRVILGGALSSMHDVSQSANVLSVCIQNKNTIDDLAMVDMLFQPQFDRPFNYLNILGQAAQAQADKAHK	soluble
MKVLDSRDFAKVKAIAIERASYRNIGALAVYIGSMTGMRISEVLALTWPDIDTKLCVIHVTRSWDHLYGTGFKPTKTDSSVRDIEISPSVIELLNKIHQEQAASYLRTGYRDEDQMIMRDPRHNVITDSACNKALHVIQNKAGIPEDKQITFHGLRHSHVSYLISKGVDIYYISKRLGHSDVTITMKVYGHLLDSQRKQEAHKAVLFMDQILEHHHHHH	not soluble
MKVPRLIVAGTESGAGKTTITISIILKLLANQMKVKPYKIGPDYIDPQFHRLASGVPSENLDLWMMNDDQIRYLLIEGSREFDISVIEGVMGLFDGAGSDFTGSTYDLARRTGTPIVLVIDGYGISATAAAIVSGIKAYAGELLRGVIVTRVSGESHYRLIRDAVEEKTGVPVLGYMIRNEKAVLESRHLGLVQAYEIDEIREIFGAIDSSTVIDMHQIIDIARSADKLETLYSPEIERLGTFKVSVAMDSAFDFYYEENLRMLKRMGASIRYFSPMGNEVPDADSDLIYLGGGYPEVFAGKLQSATDTIEAIRHAASIGTGVYAECGGYMFLCRSLESTDGHIYGGVGIIPASVYMDASLVIGYREISAKRDTSILRAGETARGHEFHKSRIRFDGPYDHPFVLKSRSSSFEDGFSSGSVTATYAHIHFLSNPRVAENLLIALEHHHHHH	not soluble
MKVRADFAFEKVARDWFVRWSKGRSEKYAGQVMRNFERWVFPAIGNLDIRQVRTADVVGCLRVMEARGIVDTLRKTKNSLKMVFAFAVGSGMMEINPVAQIGSGVFERLEHHHHHH	soluble
MKVTLPEFERAGVMVVGDVMLDRYWYGPTSRISPEAPVPVVKVNTIEERPGGAANVAMNIASLGANARLVGLTGIDDAARALSKSLADVNVKCDFVSVPTHPTITKLRVLSRNQQLIRLDFEEGFEGVDPQPLHERINQALSSIGALVLSDYAKGALASVQQMIQLARKAGVPVLIDPKGTDFERYRGATLLTPNLSEFEAVVGKCKTEEEIVERGMKLIADYELSALLVTRSEQGMSLLQPGKAPLHMPTQAQEVYDVTGAGDTVIGVLAATLAAGNSLEEACFFANAAAGVVVGKLGTSTVSPIELENAVRGRADTGFGVMTEEELKLAVAAARKRGEKVVMTNGVFDILHAGHVSYLANARKLGDRLIVAVNSDASTKRLKGDSRPVNPLEQRMIVLGALEAVDWVVSFEEDTPQRLIAGILPDLLVKGGDYKPEEIAGSKEVWANGGEVLVLNFEDGCSTTNIIKKIQQDKKG	soluble
MKWAYKEENNFEKRRAEGDKIRRKYPDRIPVIVEKAPKSKLHDLDKKKYLVPSDLTVGQFYFLIRKRIQLRPEDALFFFVNNVIPQTMTTMGQLYQDHHEEDLFLYIAYSDESVYGGEVEKKE	not soluble
MKYIIIGLGNYGHVLAEELSALGHEIIGADISESRVDSIKDKVATAFVIDATDEQSLSVLPLNSVDIVVVAIGENFGASVRVVALLKQKKVPRIFARAIDAVHKAVLEAFSLEKILTPEEDAARSLVQLLDFGATMEAFRIDQDYYVVKFTVPKKFVGYFVNELNMDEEFHLKLIALKRANKVTNCLGISLMERHVKNELPGDEKVEEGDELVCYGKYRDFQSFWKAILEHHHHHH	soluble
MKYLAGIVTFNPNIERLDQNIRAIYPQVSHIYIVDNGSKNKEEISQLVADYNEEGHLTVDYLTENKGIAYALNCIGQFAVAQEFDWFLTLDQDSVVLGDLIDNYENYLHLPKVGMLSCLYQDMNRENLVMQEFDYKEIEECITSAALMKTSVFEETSGFAEEMFIDFVDSEMNYRLSEMGYKTYQVNFIGLLHEIGHSSRVKKFGHVFHVLNHSPFRKYYMIRNAIYIIKKYGKKKRYKYLVFMRNEFVRVLVAEEQKSKKIVAMIKGLKDGLLMKVDKYGKLEHHHHHH	soluble
MKYRDLRDFLAQLERQGELKRITAPVSTRLEMTEIADRVLRAGGPALLFENARHNDAPADMPVLANLFGTPRRVAWGMGADDVGALRETGELLASLREPEAPKGLRDALAKVSMLKAALWDMSPKTVRSAACQEIVWEGADVDLGRLPIQTCWPGDVAPLLAWGLVITRGPNARRQNLGIYRQQPLGPNKLIMRWLSHRGGALDFRDHAQAHPGKPFPIAVALGADPATILGAVTPVPDTLSEYQFAGLLRGSRTEVVKALGSDLSVPASAEIVLEGHLLPADDPRAVAAAVPEGANPPPATGYEMALEGPYGDHTGYYNEQDWFPVFTVDRITMRRNPIYHSTYTGKPPDEPAVLGVALNEVFVPLLRRQLPEIVDFYLPPEGCSYRLAVVSIRKQYAGHAKRVMFGLWSVLRQFMYTKFIVVVDEDIDPRDWTEVVWAMTTRMDPVRDTVLVENTPIDYLDFASPVSGLGGKMGLDATNKWPGETSREWGTPIHMDEAVKRRVDAMWDTLGLAAALEHHHHHH	not soluble
MKYTEIMVRYGELSTKGKNRKTFIMQLAQNVKRALADFPALKIHADRDRMHILLNGEDSEEVIPKLSKVFGIQNFSPSIRIEKEMPAIRAMVQEVVREVYTPGKTFKITAKRSDHSFELDSNGLNQELGGAVIEAIPEIQVQMKKPDINLRIEIRKDAAYLSYETIRGAGGLPVGTSGRGMLMLSGGIDSPVAGYLAMKRGVEVEAVHFASPPYTSEQALQKAKDLAEKLVPYVGTIQFIEVPFTEIQEEIKRVVPQGYLMTITRRLMLRLTDAIREMRKGLVIINGESLAQVASQTLQSMVAINEVTSTPIIRPVVSMDKTEIIEIAEKIDTFELAIQPFEDCCTIFAPPQPKTRPRLDKAQEYEARLDLEGLMARALEGLKITEISAETAKDKQEDEFADFL	not soluble
MKYVLDTSAIISRNINLLDGDLLFPSSVIGEIRKGKLKYMLDALFPMIRIVDPDQYYVRSVEDAAHKTGDLMNLSGTDIEVIAVAMQYGATIVTDDYSIQNVASALKIAFMNANIKSISKQISWVYRCTGCKKIFHEPVKVCDICGHNVKRHYDKKRSAVKKILEHHHHHH	not soluble
MLAFFRRFMSTTTVTAQPVLPWFRNVPLAPADPILGVTEAFKKDTNPNKINLGVGAYRDDQGKPFVLRAVREAEQQIIDAKMDKEYSTITGVPEFAPLAAKLAFGDNSEVIRDGRVFTTQSISGTGALRIGGQFVEKFIPSKTLFYPTPTWANHLPVFRNSGLSIQPYRYYNQETLGFDVEGALEDISKMPEGSVILLHACAHNPTGVDPTKEQWKKLSQVLKERKILPFFDMAYQGFASGDVDDDAFALRHFIEQGHNVLVAQSFAKNMGLYGERVGAFSIVCDSAEEAIRVGSQMRIIIRPMISMPPLHGARIASRILSNPELKKSWLEDVKLMADRIKSMRTALKDGLKAEGSTLNWDHITNQIGMFCFTGINEKQVQKLIKEHSVYLTNDGRISISGINTGNVAYLAKALHDVTK	not soluble
MLARVCERTPISTPAWTDTLTRLAPDASSVLARGPWTWKYALPPAVVGVAALAASSPWGVVGVALAAFVVWFHRDPDRSPNGAGVVVPADGTVSVIRTRDDGRVRVGVFMNVHNVHVNRVPVAGRVESVVHEPGGHRPAFSKESAHNERVRIETAEWTVVLIAGAFARRIHPYVEAGEDLARGDRLGHISFGSRADVVLPPAYDRGDVVVESGQTVRAGETVLARLEHHHHHH	soluble
